Square brackets hold non-standard residues; d marks the D form. Ends that are not written are not given here. pY = N[C@@H](Cc1ccc(OP(=O)(O)O)cc1)C(=O)O; pT = C[C@@H](OP(=O)(O)O)[C@H](N)C(=O)O; pS = N[C@@H](COP(=O)(O)O)C(=O)O
B1: RRIsDPQVF (peptide)
peptide: RRI[pS]DPQVF
B2: SPFKRQLsL (peptide)
peptide: SPFKRQL[pS]L
B3: SLQsLETSV (peptide)
peptide: SLQ[pS]LETSV
B4: RRFsGTAVY (peptide)
peptide: RRF[pS]GTAVY
B5: YRYsPQSFL (peptide)
peptide: YRY[pS]PQSFL
B6: SPAsPKISL (peptide)
peptide: SPA[pS]PKISL
B7: TVFsPTLPAA (peptide)
peptide: TVF[pS]PTLPAA
B8: SLFsGDEENA (peptide)
peptide: SLF[pS]GDEENA
B9: RPRsISVEEF (peptide)
peptide: RPR[pS]ISVEEF
B10: RLLsFQRYL (peptide)
peptide: RLL[pS]FQRYL
B11: RPYsPPFFSL (peptide)
peptide: RPY[pS]PPFFSL
B12: SLFsSEESNLGA (peptide)
peptide: SLF[pS]SEESNLGA
B13: RPRIPsPIGF (peptide)
peptide: RPRIP[pS]PIGF
B14: SVKPRRTsL (peptide)
peptide: SVKPRRT[pS]L
B15: RIYQyIQSR (peptide)
peptide: RIYQ[pY]IQSR
B16: RPAFFsPSL (peptide)
peptide: RPAFF[pS]PSL
B17: RPRPVsPSSLL (peptide)
peptide: RPRPV[pS]PSSLL
B18: RRLsFLVSY (peptide)
peptide: RRL[pS]FLVSY
B19: RLLsAAENFL (peptide)
peptide: RLL[pS]AAENFL-OH
modifications: N-terminus assumed
SMILES: CC(C)C[C@H](NC(=O)[C@H](Cc1ccccc1)NC(=O)[C@H](CC(N)=O)NC(=O)[C@H](CCC(=O)O)NC(=O)[C@H](C)NC(=O)[C@H](C)NC(=O)[C@H](COP(=O)(O)O)NC(=O)[C@H](CC(C)C)NC(=O)[C@H](CC(C)C)NC(=O)[C@@H](N)CCCNC(=N)N)C(=O)O
B20: LPRPAsPAL (peptide)
peptide: LPRPA[pS]PAL
B21: SLFsSEESNL (peptide)
peptide: SLF[pS]SEESNL
B22: RPFsPREAL (peptide)
peptide: RPF[pS]PREAL
B23: SLFsPQNTL (peptide)
peptide: SLF[pS]PQNTL
B24: KIKsFEVVF (peptide)
peptide: KIK[pS]FEVVF
B25: SLHDIQLsL (peptide)
peptide: SLHDIQL[pS]L
B26: KRFsGTVRL (peptide)
peptide: KRF[pS]GTVRL
B27: RPDVAKRLsL (peptide)
peptide: RPDVAKRL[pS]L
B28: yLQSRYYRA (peptide)
peptide: [pY]LQSRYYRA
B29: VLFSsPPQM (peptide)
peptide: VLFS[pS]PPQM
B30: RLSsPLHFV (peptide)
peptide: RLS[pS]PLHFV
B31: SMSsLSREV (peptide)
peptide: SMS[pS]LSREV
B32: RRPsLLSEF (peptide)
peptide: RRP[pS]LLSEF
B33: RRGsFEVTL (peptide)
peptide: RRG[pS]FEVTL
B34: SISStPPAV (peptide)
peptide: SISS[pT]PPAV
B35: SISsMEVNV (peptide)
peptide: SIS[pS]MEVNV
B36: RPRsPTGPSNSFL (peptide)
peptide: RPR[pS]PTGPSNSFL
B37: RRSsFLQVF (peptide)
peptide: RRS[pS]FLQVF
B38: RIYQyIQSRF (peptide)
peptide: RIYQ[pY]IQSRF
B39: SIMsPEIQL (peptide)
peptide: SIM[pS]PEIQL
B40: FRRsPTKSSLDY (peptide)
peptide: FRR[pS]PTKSSLDY
B41: RPKtPPVVI (peptide)
peptide: RPK[pT]PPVVI
B42: LPAsPRARL (peptide)
peptide: LPA[pS]PRARL
B43: AVRPTRLsL (peptide)
peptide: AVRPTRL[pS]L

Tests used:
Test in all cases: AlphaScreen, peptide titrated on biotinylated HLA + b2m
[1] = molecular target: T1, biotinylated HLA-B*07:02 with β2m (human, biotinylated)
T1 construct: also called B*07:02 (as the text prints it)
Procedure: (§1) An AlphaScreen® assay was used to evaluate the binding of peptides to HLA molecules. Donor beads conjugated with streptavidin, and acceptor beads conjugated with the anti-human HLA class I antibody W6/32, were used to assess peptide binding. Biotinylated HLAs (A*02:01, B*07:02, C*07:01, or C*07:02) were mixed with a fixed excess of β2m and the mixtures added to each well of a 384-well microplate. Serial dilutions of the synthesized phosphopeptides were added to the wells, and the resultant HLA/β2/peptide mixtures were incubated overnight at 18° C. W6/32 conjugated acceptor beads were subsequently added to the wells, and the mixture was incubated for 1 hour at 21° C. Streptavidin conjugated donor beads were then added to the wells, and the mixture was incubated for a further 1 hour at 21° C.
(§2) The microplate was read using the PerkinElmer® plate reader, and data were plotted using the Michaelis-Menten equation to determine the Kd for each phosphopeptide.

[2] = molecular target: biotinylated HLA-C*07:01 with β2m (human, biotinylated)
Procedure: as §1, §2

[3] = molecular target: biotinylated HLA-C*07:02 with β2m (human, biotinylated)
Procedure: as §1, §2

[4] = molecular target: T2, biotinylated HLA-A*02:01 with β2m (human, biotinylated)
T2 construct: HLA heavy chain mixed with excess β2m; the peptide is titrated onto it
Procedure: as §1, §2

Row | Binder | binding result [1] | Kd [1] [nM] | Kd [4] [nM] | other results
1 | B1 | no binding |  |  | Kd [2]: 11.4 nM; Kd [3]: 19.9 nM
2 | B2 |  | 64.7 |  | 
3 | B3 | no binding |  | 121 | binding result [2]: no binding; binding result [3]: no binding
4 | B4 | no binding |  |  | Kd [2]: 2180 nM; Kd [3]: 16.7 nM
5 | B5 | no binding |  |  | binding result [4]: no binding
6 | B6 |  | 275 |  | 
7 | B7 | no binding |  | 46.9 | binding result [2]: no binding; binding result [3]: no binding
8 | B8 | no binding |  | 278 | binding result [2]: no binding; binding result [3]: no binding
9 | B9 |  | 86.1 |  | 
10 | B10 | no binding |  | 49.7 | 
11 | B11 |  | 157 |  | 
12 | B12 | no binding |  | 149 | binding result [2]: no binding; binding result [3]: no binding
13 | B13 |  | 84.4 |  | binding result [4]: no binding
14 | B14 |  |  |  | binding result [4]: no binding; binding result [2]: no binding; binding result [3]: no binding
15 | B15 |  |  |  | binding result [4]: no binding
16 | B16 |  | 398 |  | binding result [4]: no binding
17 | B17 |  | 186 |  | 
18 | B18 |  |  |  | Kd [2]: 1570 nM; Kd [3]: 113 nM
19 | B19 |  |  | 114 | 
20 | B20 |  | 223 |  | binding result [4]: no binding
21 | B21 | no binding |  | 466 | binding result [2]: no binding; binding result [3]: no binding
22 | B22 |  | 163 |  | 

Row | Binder | binding result [1] | Kd [1] [nM] | Kd [4] [nM] | other results
23 | B23 |  |  | 116 | 
24 | B24 | no binding |  |  | 
25 | B25 |  | 642 | 31.9 | Kd [2]: 962 nM; Kd [3]: 413 nM
26 | B26 | no binding |  |  | 
27 | B27 |  | 216 |  | 
28 | B28 |  |  | 255 | binding result [2]: no binding
29 | B29 | no binding |  | 227 | binding result [3]: no binding
30 | B30 |  |  | 90.6 | 
31 | B31 | no binding |  | 927 | binding result [2]: no binding; binding result [3]: no binding
32 | B32 |  |  |  | Kd [2]: 804 nM; Kd [3]: 35.7 nM
33 | B33 | no binding |  |  | Kd [2]: 16.6 nM; Kd [3]: 15.9 nM
34 | B34 | no binding |  | 169 | binding result [2]: no binding; binding result [3]: no binding
35 | B35 | no binding |  | 306 | binding result [2]: no binding; binding result [3]: no binding
36 | B36 |  | 360 |  | binding result [4]: no binding
37 | B37 | no binding |  |  | Kd [3]: 19 nM
38 | B38 |  |  |  | Kd [2]: 477 nM; Kd [3]: 377 nM
39 | B39 | no binding |  | 84 | 
40 | B40 |  |  |  | Kd [3]: 98.6 nM
41 | B41 |  |  |  | binding result [4]: no binding
42 | B42 |  | 83.5 |  | 
43 | B43 |  | 117 |  | binding result [4]: no binding

From patent US20220275049A1 (AGENUS, published 2022)
